Measurements from patent US20110027284A1 (Novartis, published 2011).

T1: recombinant human NiG (human, UniProt Q9NQC3 186-1004)
T1 construct: Recombinant fragment, amine-coupled to a CM5 chip; also called hNiG; human NiG-fragment of NogoA
T1 sequence: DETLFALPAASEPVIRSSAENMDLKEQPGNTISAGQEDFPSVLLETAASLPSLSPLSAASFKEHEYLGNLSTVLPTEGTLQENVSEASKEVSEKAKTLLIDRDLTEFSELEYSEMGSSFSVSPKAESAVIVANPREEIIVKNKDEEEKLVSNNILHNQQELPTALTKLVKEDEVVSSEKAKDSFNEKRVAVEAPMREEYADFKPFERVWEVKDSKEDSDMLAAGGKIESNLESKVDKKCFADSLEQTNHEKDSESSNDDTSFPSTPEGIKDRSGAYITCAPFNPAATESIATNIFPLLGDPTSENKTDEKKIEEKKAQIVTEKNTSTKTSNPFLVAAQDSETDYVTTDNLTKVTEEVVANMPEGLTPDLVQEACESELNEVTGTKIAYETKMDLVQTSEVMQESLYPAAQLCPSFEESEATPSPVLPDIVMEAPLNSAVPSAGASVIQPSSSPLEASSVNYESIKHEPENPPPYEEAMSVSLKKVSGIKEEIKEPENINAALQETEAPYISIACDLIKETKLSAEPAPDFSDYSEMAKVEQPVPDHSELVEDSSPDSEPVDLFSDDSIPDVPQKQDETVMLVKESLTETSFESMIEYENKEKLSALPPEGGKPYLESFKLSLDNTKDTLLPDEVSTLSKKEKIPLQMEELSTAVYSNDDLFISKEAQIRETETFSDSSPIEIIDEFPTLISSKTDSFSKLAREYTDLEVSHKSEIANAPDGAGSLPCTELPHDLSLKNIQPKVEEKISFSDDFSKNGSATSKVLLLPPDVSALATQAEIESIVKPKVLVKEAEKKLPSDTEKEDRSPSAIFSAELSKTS


Target: T1, recombinant human NiG
Assay: SPR (BIAcore), recombinant human NiG immobilised on a CM5 chip
Method: The affinity of the mouse 6A3-IgG1 mAb, 6A3-IgG4 mAb, and of the 6A3 Fab were measured by surface plasmon resonance (SPR) using a BIAcore 2000 optical biosensor (Biacore, Uppsala, Sweden) according to the manufacture's instructions. Recombinant human NIG was covalently immobilized on a flow cell of a CM5 sensor chip using amine-coupling chemistry. Briefly; the carboxymethlyladed dextran matrix was activated by injecting 35 μl of a solution containing 0.025M NHS and 0.1M EDC. […] The deactivation of the remaining NHS-ester group was performed by injection of 35 μl of 1M ethanolamine hydrochloride (pH 8.5). The surface of the sensor chip was regenerated by injecting 5 μl 0.1M HCl. […] After each injection, the sensor chip surface was regenerated with the injection of 10 μl 0.1M HCl without loss of binding activity on the surface. The kinetic constants, ka and kd and the affinity constants KA and KD were evaluated using the BIAevaluations 3.0 software supplied by the manufacturer.
Affinity measurement in BIAcore: The kinetic and the affinity binding constants of the mouse 6A3-IgG1 mAb, 6A3-IgG4 mAb, and of the 6A3 derived monovalent Fab fragment to recombinant human NogoA were measured in real time using surface plasmon resonance (SPR) technology (Biacore). […]

| Kd [nM] | Binder |
| --- | --- |
| 0.14 | 6A3-IgG4 mAb (antibody, V domains shown, Recombinant human IgG4/kappa made in SP2/0 cells; also called 6A3-Ig4; 6A3-Ab) VH: EVQLVESGGGLVQPGGSLRLSCAASGFTFSNYWMSWVRQAPGKGLEWVATIKQDGSQKNYVDSVKGRFTISRDNAKNSLYLRLNSLRAEDTAVYYCATELFDLWGRGSLVTVSS VL: EIVLTQSPATLSLSPGERATLSCRASQSVSSYLAWYQQKPGQAPRLLIYDASNRATGIPARFSGSGSGTDFTLTISSLEPEDFAVYYCQQRSNWPITFGQGTKLEIKR |
| 1.1 | 6A3 Fab monovalent fragment with his-tag (Fab, V domains shown, not shown: a dimerising Fc or GST; small tags and cut ends, A his-tag is present, but its chain and position are not stated, so it is left out., Made in E. coli; also called 6A3 derived monovalent Fab fragment; copies: 1 + 1) VH: EVQLVESGGGLVQPGGSLRLSCAASGFTFSNYWMSWVRQAPGKGLEWVATIKQDGSQKNYVDSVKGRFTISRDNAKNSLYLRLNSLRAEDTAVYYCATELFDLWGRGSLVTVSS VL: EIVLTQSPATLSLSPGERATLSCRASQSVSSYLAWYQQKPGQAPRLLIYDASNRATGIPARFSGSGSGTDFTLTISSLEPEDFAVYYCQQRSNWPITFGQGTRLEIK |
